Test results published in PMC10397247.

Experiments:
[1] = target: T1, 4H130-AA; test: two-hybrid library CCmax;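 also: natural log of median RNA to DNA barcode read ratio; higher means stronger binding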
T1 chain: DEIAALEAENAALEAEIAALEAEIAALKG

[2] = target: T2, 4H1349-AA; test: two-hybrid library CCmax; details: mean of both orientations;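 also: natural log of median RNA to DNA barcode read ratio; higher means stronger binding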
T2 chain: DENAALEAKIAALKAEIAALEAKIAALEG

[3] = target: T3, 4H1360-AA; test: two-hybrid library CCmax; details: mean of both orientations;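 also: natural log of median RNA to DNA barcode read ratio; higher means stronger binding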
T3 chain: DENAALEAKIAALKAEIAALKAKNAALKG

[4] = target: T4, 4H1454-AA; test: two-hybrid library CCmax; details: mean of both orientations;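 also: natural log of median RNA to DNA barcode read ratio; higher means stronger binding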
T4 chain: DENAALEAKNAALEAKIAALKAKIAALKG

[5] = target: T5, 4H1558-AA; test: two-hybrid library CCmax; details: mean of both orientations;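 also: natural log of median RNA to DNA barcode read ratio; higher means stronger binding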
T5 chain: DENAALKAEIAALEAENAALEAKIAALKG

[6] = target: T6, 4H1913-AA; test: two-hybrid library CCmax; details: mean of both orientations;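 also: natural log of median RNA to DNA barcode read ratio; higher means stronger binding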
T6 chain: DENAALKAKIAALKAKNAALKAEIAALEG

[7] = target: T7, 4H249-AA; test: two-hybrid library CCmax; details: mean of both orientations
T7 chain: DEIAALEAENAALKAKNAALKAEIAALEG

[8] = target: T8, 4H2580-AA; test: two-hybrid library CCmax; details: mean of both orientations
T8 chain: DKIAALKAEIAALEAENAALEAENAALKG

[9] = target: T9, 4H2621-AA; test: two-hybrid library CCmax; details: mean of both orientations
T9 chain: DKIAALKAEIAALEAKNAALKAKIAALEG

[10] = target: T10, 4H2699-AA; test: two-hybrid library CCmax; details: mean of both orientations
T10 chain: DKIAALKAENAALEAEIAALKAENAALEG

[11] = target: T11, 4H2728-AA; test: two-hybrid library CCmax; details: mean of both orientations
T11 chain: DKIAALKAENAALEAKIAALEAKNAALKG

[12] = target: T12, 4H2774-AA; test: two-hybrid library CCmax; details: mean of both orientations
T12 chain: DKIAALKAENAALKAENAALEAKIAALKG

[13] = target: T13, 4H2903-AA; test: two-hybrid library CCmax; details: mean of both orientations
T13 chain: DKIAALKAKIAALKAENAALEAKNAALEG

[14] = target: T14, 4H2961-AA; test: two-hybrid library CCmax
T14 chain: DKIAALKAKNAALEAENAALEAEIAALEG

[15] = target: T15, 4H3049-AA; test: two-hybrid library CCmax; details: mean of both orientations
T15 chain: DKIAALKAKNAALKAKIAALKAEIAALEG

[16] = target: T16, 4H3129-AA; test: two-hybrid library CCmax; details: mean of both orientations
T16 chain: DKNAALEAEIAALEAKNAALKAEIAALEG

[17] = target: T17, 4H341-AA; test: two-hybrid library CCmax; details: mean of both orientations
T17 chain: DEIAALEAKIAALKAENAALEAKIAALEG

[18] = target: T18, 4H3414-AA; test: two-hybrid library CCmax; details: mean of both orientations
T18 chain: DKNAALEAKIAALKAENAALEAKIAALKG

[19] = target: T19, 4H3595-AA; test: two-hybrid library CCmax; details: mean of both orientations
T19 chain: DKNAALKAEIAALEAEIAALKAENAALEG

[20] = target: T20, 4H3629-AA; test: two-hybrid library CCmax; details: mean of both orientations
T20 chain: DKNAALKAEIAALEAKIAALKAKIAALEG

[21] = target: T21, 4H3782-AA; test: two-hybrid library CCmax; details: mean of both orientations
T21 chain: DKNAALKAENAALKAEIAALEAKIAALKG

[22] = target: T22, 4H380-AA; test: two-hybrid library CCmax; details: mean of both orientations
T22 chain: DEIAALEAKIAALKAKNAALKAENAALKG

[23] = target: T23, 4H3939-AA; test: two-hybrid library CCmax; details: mean of both orientations
T23 chain: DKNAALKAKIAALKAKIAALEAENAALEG

[24] = target: T24, 4H3969-AA; test: two-hybrid library CCmax; details: mean of both orientations
T24 chain: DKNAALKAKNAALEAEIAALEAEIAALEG

[25] = target: T25, 4H446-AA; test: two-hybrid library CCmax; details: mean of both orientations
T25 chain: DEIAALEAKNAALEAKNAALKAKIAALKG

[26] = target: T26, 4H464-AA; test: two-hybrid library CCmax; details: mean of both orientations
T26 chain: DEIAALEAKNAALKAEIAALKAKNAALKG

[27] = target: T27, 4H483-AA; test: two-hybrid library CCmax; details: mean of both orientations
T27 chain: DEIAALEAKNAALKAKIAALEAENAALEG

[28] = target: T28, 4H63-AA; test: two-hybrid library CCmax; details: mean of both orientations
T28 chain: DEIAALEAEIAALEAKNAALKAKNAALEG

[29] = target: T29, P11A-bA; test: two-hybrid library CCNG1
T29 chain: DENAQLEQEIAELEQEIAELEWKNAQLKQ

[30] = target: T30, P12A-bA; test: two-hybrid library CCNG1
T30 chain: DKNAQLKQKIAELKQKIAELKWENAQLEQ

[31] = target: T31, P1A-bA; test: two-hybrid library CCNG1
T31 chain: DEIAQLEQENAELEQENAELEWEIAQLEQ

[32] = target: T32, P2A-bA; test: two-hybrid library CCNG1
T32 chain: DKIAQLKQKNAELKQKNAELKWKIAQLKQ

[33] = target: T33, P3A-bA; test: two-hybrid library CCNG1
T33 chain: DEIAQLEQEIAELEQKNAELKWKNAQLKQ

[34] = target: T34, P4A-bA; test: two-hybrid library CCNG1
T34 chain: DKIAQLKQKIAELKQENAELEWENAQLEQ

[35] = target: T35, P5A-bA; test: two-hybrid library CCNG1
T35 chain: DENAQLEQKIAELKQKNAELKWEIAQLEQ

[36] = target: T36, P6A-bA; test: two-hybrid library CCNG1
T36 chain: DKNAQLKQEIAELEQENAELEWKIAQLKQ

[37] = target: T37, P7A-bA; test: two-hybrid library CCNG1
T37 chain: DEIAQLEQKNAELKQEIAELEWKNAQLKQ

[38] = target: T38, P8A-bA; test: two-hybrid library CCNG1
T38 chain: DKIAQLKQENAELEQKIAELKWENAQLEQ

[39] = target: T39, P9A-bA; test: two-hybrid library CCNG1
T39 chain: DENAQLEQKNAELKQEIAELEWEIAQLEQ

[40] = target: T40, P11A-bS; test: two-hybrid library CCNG1
T40 chain: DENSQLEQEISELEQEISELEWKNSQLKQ

[41] = target: T41, P12A-bS; test: two-hybrid library CCNG1
T41 chain: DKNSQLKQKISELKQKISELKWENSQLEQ

[42] = target: T42, P1A-bS; test: two-hybrid library CCNG1
T42 chain: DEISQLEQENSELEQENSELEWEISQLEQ

[43] = target: T43, P2A-bS; test: two-hybrid library CCNG1
T43 chain: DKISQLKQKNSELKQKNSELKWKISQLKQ

[44] = target: T44, P3A-bS; test: two-hybrid library CCNG1
T44 chain: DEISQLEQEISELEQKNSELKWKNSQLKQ

[45] = target: T45, P4A-bS; test: two-hybrid library CCNG1
T45 chain: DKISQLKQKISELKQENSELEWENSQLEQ

[46] = target: T46, P5A-bS; test: two-hybrid library CCNG1
T46 chain: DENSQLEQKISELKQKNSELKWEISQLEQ

[47] = target: T47, P6A-bS; test: two-hybrid library CCNG1
T47 chain: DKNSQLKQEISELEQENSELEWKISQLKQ

[48] = target: T48, P7A-bS; test: two-hybrid library CCNG1
T48 chain: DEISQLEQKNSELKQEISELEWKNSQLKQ

[49] = target: T49, P8A-bS; test: two-hybrid library CCNG1
T49 chain: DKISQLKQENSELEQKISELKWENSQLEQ

[50] = target: T50, P9A-bS; test: two-hybrid library CCNG1
T50 chain: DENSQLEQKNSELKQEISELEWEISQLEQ

[51] = target: T51, P2-AA-1HAA-E; test: two-hybrid library CCmax; details: mean of both orientations
T51 chain: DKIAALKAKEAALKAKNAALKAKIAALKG

[52] = target: T52, P2-AA-1HAA-K; test: two-hybrid library CCmax; details: mean of both orientations
T52 chain: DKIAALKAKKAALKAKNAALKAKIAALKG

[53] = target: T53, P2-AA-1HAA-R; test: two-hybrid library CCmax; details: mean of both orientations
T53 chain: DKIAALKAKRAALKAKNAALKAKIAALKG

[54] = target: T54, P2-AA-1HAA-S; test: two-hybrid library CCmax; details: mean of both orientations
T54 chain: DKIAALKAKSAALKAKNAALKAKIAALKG

[55] = target: T55, P2-AA-1HAA-T; test: two-hybrid library CCmax; details: mean of both orientations
T55 chain: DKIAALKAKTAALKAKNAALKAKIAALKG

[56] = target: T56, P2-AA; test: two-hybrid library CCmax; details: mean of both orientations
T56 chain: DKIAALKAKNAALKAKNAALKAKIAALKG

DEIAALEAENAALEAEIAALEAEIAALKG [4H130-AA]
interaction score [1]: 1.11
interaction score [2]: -0.443
interaction score [3]: 1.22
interaction score [4]: 1.52
interaction score [5]: -0.952
interaction score [6]: 1.08
interaction score [7]: 1.18
interaction score [8]: -1.46
interaction score [9]: 0.962
interaction score [10]: -0.46
interaction score [11]: 0.54
interaction score [12]: 0.9
interaction score [13]: -1.15
interaction score [14]: -0.589
interaction score [15]: 1.67
interaction score [16]: -0.746
interaction score [17]: 0.154
interaction score [18]: 1
interaction score [19]: 0.698
interaction score [20]: 0.896
interaction score [21]: 1.3
interaction score [22]: -0.0955
interaction score [23]: 1.29
interaction score [24]: -0.404
interaction score [25]: 1.05
interaction score [26]: 1.95
interaction score [27]: 0.0918
interaction score [28]: -1.29

DENAQLEQEIAELEQEIAELEWKNAQLKQ [P11A-bA]
interaction score [29]: -1.39
interaction score [30]: 1.91
interaction score [31]: 0.307
interaction score [32]: 1.07
interaction score [33]: -0.656
interaction score [34]: 1.83
interaction score [35]: 0.849
interaction score [36]: 0.118
interaction score [37]: -1.28
interaction score [38]: -0.166
interaction score [39]: -0.585

DKNAQLKQENAELEQKIAELKWKIAQLKQ [P10A-bA]
interaction score [29]: 0.99
interaction score [30]: 0.511
interaction score [31]: 0.776
interaction score [32]: -0.362
interaction score [33]: 0.562
interaction score [34]: 0.592
interaction score [35]: 0.318
interaction score [36]: -0.543
interaction score [37]: 1.04
interaction score [38]: -0.165

DKNSQLKQENSELEQKISELKWKISQLKQ [P10A-bS]
interaction score [40]: -0.138
interaction score [41]: -0.0445
interaction score [42]: -2.5
interaction score [43]: -0.0157
interaction score [44]: -0.693
interaction score [45]: -0.106
interaction score [46]: -1.76
interaction score [47]: -1.53
interaction score [48]: -0.464
interaction score [49]: -0.395

DKNAQLKQKIAELKQKIAELKWENAQLEQ [P12A-bA]
interaction score [30]: -0.937
interaction score [31]: -0.14
interaction score [32]: -1.29
interaction score [33]: 0.536
interaction score [34]: -1.03
interaction score [35]: -1.16
interaction score [36]: -0.314
interaction score [37]: -1.88
interaction score [38]: -1.32
interaction score [39]: 0.0326

DENSQLEQEISELEQEISELEWKNSQLKQ [P11A-bS]
interaction score [40]: -0.865
interaction score [41]: 2.41
interaction score [42]: 0.728
interaction score [43]: -0.288
interaction score [44]: -0.458
interaction score [45]: 0.142
interaction score [46]: -0.458
interaction score [47]: 0.727
interaction score [48]: -1.25
interaction score [49]: 0.714
interaction score [50]: -0.134

DEIAALEAEEAALEAENAALEAEIAALEG [P1-AA-1HAA-E]
interaction score [51]: 0.691
interaction score [52]: 1.57
interaction score [53]: 1.9
interaction score [54]: 1.57
interaction score [55]: 1.66
interaction score [56]: 1.82

DKNSQLKQKISELKQKISELKWENSQLEQ [P12A-bS]
interaction score [41]: -1.48
interaction score [42]: -0.648
interaction score [43]: -1.69
interaction score [44]: -2.43
interaction score [45]: -1.12
interaction score [46]: -2.21
interaction score [47]: -0.87
interaction score [48]: -0.873
interaction score [49]: -1.07
interaction score [50]: -0.676
